Changes are numbered by the printed parent chain. Names may count otherwise. Like-named read-outs stand apart in the source and are kept apart here. Each block holds one molecule with its values, some of them ahead of it.
Columns and labels:
[1] = target: T1, human BMP6 (human, UniProt P22004 382-513, limits assumed); experiment: specificity ELISA, coated antigen, IgG 0.2 uM
T1 sequence: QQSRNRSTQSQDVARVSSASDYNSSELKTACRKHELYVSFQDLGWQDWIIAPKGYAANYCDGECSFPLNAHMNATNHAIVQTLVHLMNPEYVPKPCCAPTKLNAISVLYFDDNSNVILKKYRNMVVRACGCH
Experimental: (§1) After washing the plates three times with 100 uL TBST, each antigen was incubated with 40 uL of purified Fab or IgG samples at a concentration of 1 uM and 0.2 uM respectively (in PBST buffer).
(§2) After 2 h incubation at RT, the plates were again washed three times and bound Fabs/IgGs detected by adding 40 uL of a 1:5000 dilution of secondary AP-conjugated anti-human IgG F(ab2) antibody. After 1 h at RT, the signal was developed by adding 40 uL AttoPhos substrate according to the manufacturer's protocol and the plates were analyzed immediately using an excitation wavelength of 430 nm and an emission wavelength of 535 nm with an ELISA plate reader.

[2] = target: T2, mouse BMP6 (mouse, UniProt P20722 372-510, limits assumed); experiment: specificity ELISA, coated antigen, IgG 0.2 uM
T2 construct: also called mBMP6; mBMP6_RD
T2 sequence (looked up): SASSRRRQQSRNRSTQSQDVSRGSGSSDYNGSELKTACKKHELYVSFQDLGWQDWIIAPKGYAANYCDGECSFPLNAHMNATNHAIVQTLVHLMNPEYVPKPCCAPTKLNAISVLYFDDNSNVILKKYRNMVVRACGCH
Experimental: as §1, §2

[3] = target: T3, Bovine serum albumin (bovine, UniProt P02769 25-607); experiment: specificity ELISA, coated antigen, IgG 0.2 uM
T3 construct: unrelated control antigen in the specificity ELISA; also called BSA
T3 sequence (P02769 25-607 limits assumed): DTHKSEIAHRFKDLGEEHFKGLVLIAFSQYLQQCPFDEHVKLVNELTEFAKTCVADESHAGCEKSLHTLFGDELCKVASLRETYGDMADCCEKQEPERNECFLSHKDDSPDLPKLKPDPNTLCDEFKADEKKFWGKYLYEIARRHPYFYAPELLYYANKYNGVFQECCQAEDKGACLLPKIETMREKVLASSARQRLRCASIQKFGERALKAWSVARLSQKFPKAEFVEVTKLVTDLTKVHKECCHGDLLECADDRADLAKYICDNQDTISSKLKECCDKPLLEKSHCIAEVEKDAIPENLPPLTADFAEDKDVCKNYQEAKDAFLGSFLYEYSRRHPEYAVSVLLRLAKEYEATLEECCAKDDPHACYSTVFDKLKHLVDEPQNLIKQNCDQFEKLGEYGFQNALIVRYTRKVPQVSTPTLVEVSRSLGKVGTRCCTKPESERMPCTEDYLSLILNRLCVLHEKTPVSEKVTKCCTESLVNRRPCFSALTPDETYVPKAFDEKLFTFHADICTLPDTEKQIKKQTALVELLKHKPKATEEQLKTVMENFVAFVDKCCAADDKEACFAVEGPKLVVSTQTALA
Experimental: as §1, §2

[4] = target: T4, human BMP5 (human, UniProt P22003 317-454, limits assumed); experiment: specificity ELISA, coated antigen, IgG 0.2 uM
T4 sequence: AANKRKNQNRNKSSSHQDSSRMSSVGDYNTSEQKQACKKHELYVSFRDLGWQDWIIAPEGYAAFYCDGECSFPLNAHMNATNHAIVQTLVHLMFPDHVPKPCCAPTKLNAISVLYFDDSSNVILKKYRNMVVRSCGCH
Experimental: as §1, §2

[5] = target: T5, human BMP7 (human, UniProt P18075 293-431); experiment: specificity ELISA, coated antigen, IgG 0.2 uM
T5 sequence: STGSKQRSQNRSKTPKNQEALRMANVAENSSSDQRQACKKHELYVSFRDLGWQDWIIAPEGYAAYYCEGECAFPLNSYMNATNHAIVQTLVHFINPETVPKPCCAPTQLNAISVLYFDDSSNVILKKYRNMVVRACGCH
Experimental: as §1, §2

[6] = target: T1, human BMP6; experiment: cell-based or functional assay
[7] = target: T1, human BMP6; experiment: cell-based or functional assay; remark: listed apart in the source
[8] = target: T6, human BMP2 (human, UniProt P12643 283-396); experiment: cell-based or functional assay
T6 sequence (P12643 283-396 limits assumed): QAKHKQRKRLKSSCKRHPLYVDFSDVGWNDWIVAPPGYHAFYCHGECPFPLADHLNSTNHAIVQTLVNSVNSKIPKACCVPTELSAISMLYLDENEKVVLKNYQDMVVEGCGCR

[9] = target: T5, human BMP7; experiment: cell-based or functional assay
[10] = target: T1, human BMP6; experiment: cell-based or functional assay; remark: listed apart in the source
[11] = target: T1, human BMP6; experiment: method not stated in the table (Table 7 names Biacore)
[12] = target: T1, human BMP6; experiment: Biacore
[13] = target: T1, human BMP6; experiment: cell-based or functional assay; remark: listed apart in the source
[14] = target: 384 purified extracellular or secretory proteins (Protagen UNIchip); experiment: Protagen UNIchip protein chip with 384 purified extracellular or secretory proteins, purified hIgG1
[15] = target: T1, human BMP6; experiment: cell-based or functional assay; remark: listed apart in the source
[16] = target: T6, human BMP2; experiment: cell-based or functional assay; remark: listed apart in the source
[17] = target: T5, human BMP7; experiment: cell-based or functional assay; remark: listed apart in the source
[18] = target: T4, human BMP5; experiment: cell-based or functional assay
[19] = target: T4, human BMP5; experiment: cell-based or functional assay; remark: listed apart in the source
[20] = target: T3, Bovine serum albumin; experiment: ELISA on coated antigen, detection with anti-Fab-AP, fluorescence signal intensity
[21] = target: T1, human BMP6; experiment: ELISA binding assay; reference human BMP7
[22] = target: T6, human BMP2; experiment: cell-based or functional assay; remark: listed apart in the source

B1: Antibody 5 (antibody, human IgG1, lambda, V domains shown)
VH: QVQLVESGGGLVKPGGSLRLSCAASGFTFSSYVVHWVRQAPGKGLEWVGRIKRESSSYTTMYAAPVKGRFTISRDDSKNTLYLQMNSLKTEDTAVYYCARVERSKSGFDNWGQGTLVTVSS
VL: QSVLTQPPSVSGAPGQRVTISCTGSSSNIGAGYSVHWYQQLPGTAPKLLIYGQSERPSGVPDRFSGSKSGTSASLAITGLQAEDEADYYCQSWDSSQTLVVFGGGTKLTVLG
notes: germlined clone of NOV0787 (HCDR2-matured NOV0442_VL[Y49,G50,N51Q]); human IgG1; lead antibody; also called NOV0951; NOV951
IC50(ug/ml) BMP6 reporter [6]: 0.06 µg/mL
RGA IC50 [7]: 0.04 µg/mL
RGA max [7]: 0.9
RGA min [7]: 0.02
RGA IC50 [8]: > 25 µg/mL
RGA max [8]: 1
RGA min [8]: 0.9
RGA IC50 [9]: 25 µg/mL
RGA max [9]: 1
RGA min [9]: 0.5
BRE-Luc RGA IC50 [10]: 0.26 nM
RGA selectivity, hBMP6 over hBMP7 [10]: ~1000 fold
Kd [11]: 0.1 nM
Signal over background [1]: 65
Signal over background [2]: 24
Signal over background [3]: 1
Signal over background [5]: 8
Kd [12]: ~0.1 nM
IC50 (read off the curve); BMP6-induced BRE-luc reporter activity in HEP3B cells [13]: ~0.5 nM
off-target hits [14]: < 10 hits
BRE-luc reporter IC50 in Hep3B [15]: 0.4 nM
selectivity window of BMP6 over this BMP (BRE-luc reporter) [16]: ≥ 500 fold
selectivity window of BMP6 over this BMP (BRE-luc reporter) [17]: ≥ 500 fold

B2: Antibody 6 (antibody, human IgG1, lambda, V domains shown)
VH: B1 VH with I51T, K52R, R53H, E54S, S55D, S56M, S57G, T59A, M61S
VL: B1 VL
notes: germlined clone of NOV0798 (HCDR2-matured NOV0442_VL[Y49,G50,N51Q]); human IgG1; lead antibody; also called NOV0954; NOV954
IC50(ug/ml) BMP6 reporter [6]: 0.08 µg/mL
RGA IC50 [7]: 0.05 µg/mL
RGA max [7]: 1
RGA min [7]: 0.02
RGA IC50 [8]: > 25 µg/mL
RGA max [8]: 1
RGA min [8]: 1
RGA IC50 [18]: > 25 µg/mL
RGA max [18]: 1
RGA min [18]: 0.9
RGA IC50 [9]: 25 µg/mL
RGA max [9]: 0.9
RGA min [9]: 0.5
BRE-Luc RGA IC50 [10]: 0.3 nM
RGA selectivity, hBMP6 over hBMP7 [10]: ~1000 fold
Kd [11]: < 0.1 nM
Signal over background [1]: 38
Signal over background [2]: 29
Signal over background [3]: 1
Signal over background [4]: 2
Signal over background [5]: 3
Kd [12]: ~0.1 nM
IC50 (read off the curve); BMP6-induced BRE-luc reporter activity in HEP3B cells [13]: ~0.5 nM
off-target hits [14]: < 10 hits
BRE-luc reporter IC50 in Hep3B [15]: 0.4 nM
selectivity window of BMP6 over this BMP (BRE-luc reporter) [16]: ≥ 500 fold
selectivity window of BMP6 over this BMP (BRE-luc reporter) [19]: ≥ 500 fold
selectivity window of BMP6 over this BMP (BRE-luc reporter) [17]: ≥ 500 fold

B4: Antibody 3 (antibody, human IgG1, lambda, V domains shown)
VH: B1 VH with R53D, E54H, S55K, S56Q, S57G, M61A, P65S
VL: B1 VL with Q53S
notes: germlined clone of NOV0800 (HCDR2-matured NOV0442_VL[Y49,G50,N51S]); human IgG1; back-up antibody; also called NOV0961; NOV961
RGA IC50 [7]: 0.08 µg/mL
RGA max [7]: 0.9
RGA min [7]: 0.02
RGA IC50 [8]: > 25 µg/mL
RGA max [8]: 1
RGA min [8]: 0.8
RGA IC50 [18]: > 25 µg/mL
RGA max [18]: 0.9
RGA min [18]: 0.8
RGA IC50 [9]: > 25 µg/mL
RGA max [9]: 1
RGA min [9]: 0.8
Signal over background [1]: 48
Signal over background [2]: 29
Signal over background [3]: 1
Signal over background [4]: 1
Signal over background [5]: 2

The next lines start with results.

Signal over background [1]: 61
Signal over background [2]: 18
Signal over background [3]: 1
Signal over background [4]: 4
Signal over background [5]: 14
Molecule: Control IgG (antibody)

IC50(ug/ml) BMP6 reporter [6]: 0.07 µg/mL
RGA IC50 [7]: 0.04 µg/mL
RGA max [7]: 0.9
RGA min [7]: 0.02
RGA IC50 [18]: > 25 µg/mL
RGA max [18]: 1.1
RGA min [18]: 1.1
RGA IC50 [9]: 25 µg/mL
RGA max [9]: 0.9
RGA min [9]: 0.5
BRE-Luc RGA IC50 [10]: 0.26 nM
RGA selectivity, hBMP6 over hBMP7 [10]: ~1000 fold
Kd [11]: 0.1 nM
Signal over background [1]: 59
Signal over background [2]: 32
Signal over background [3]: 1
Signal over background [5]: 7
Kd [12]: ~0.1 nM
IC50 (read off the curve); BMP6-induced BRE-luc reporter activity in HEP3B cells [13]: ~0.5 nM
off-target hits [14]: < 10 hits
BRE-luc reporter IC50 in Hep3B [15]: 0.4 nM
selectivity window of BMP6 over this BMP (BRE-luc reporter) [19]: ≥ 500 fold
selectivity window of BMP6 over this BMP (BRE-luc reporter) [17]: ≥ 500 fold
fold selectivity for human BMP6 over human BMP7 [21]: > 500 fold
RGA IC50 [22]: > 25 µg/mL
RGA max [22]: 0.9
RGA min [22]: 1.1
selectivity window of BMP6 over this BMP (BRE-luc reporter) [22]: > 500 fold
B3: Antibody 7 (antibody, human IgG1, lambda, V domains shown)
VH: B1 VH with K52R, R53L, S55T, S56H, S57G, T59A, T60A, M61E, P65S
VL: B1 VL
notes: germlined clone of NOV0806 (HCDR2-matured NOV0442_VL[Y49,G50,N51Q]); human IgG1; final lead; also called NOV0958; NOV958
binding result [20]: no binding (tested: not given on the sheet)

From patent US20160176956A1 (Novartis, published 2016)
